Data published in paper PMC8654964, “Centrosome dysfunction associated with somatic expression of the synaptonemal complex protein TEX12” (Communications Biology, 2021).

Biological target: the molecule itself
Assay: SEC-MALS; Superdex 200 Increase 10/300 GL, 20 mM Tris pH 8.0, 150 mM KCl, 2 mM DTT, 0.5 ml/min; TEX12 loaded at 12 mg/ml, TEX12core at 4 mg/ml; self-association (homodimer)

B1: TEX12 (human, full length, amino acids 1-123) (natural protein, UniProt Q9BXU0 1-123, looked up)
chain: MMANHLVKPDNRNCKRPRELESPVPDSPQLSSLGKSDSSFSEISGLFYKDEALEKDLNDVSKEINLMLSTYAKLLSERAAVDASYIDEIDELFKEANAIENFLIQKREFLRQRFTVIANTLHR
notes: Human TEX12, synaptonemal complex central element protein, amino acids 1-123 (full length); Cloned into pMAT11 as a His6-MBP fusion with a TEV site; also called recombinant human TEX12; source: E. coli BL21(DE3), purified (Ni-NTA, amylose, TEV cleavage, anion exchange); not shown: His6, N-terminal, cleaved; MBP, N-terminal, cleaved
stoichiometry N: 2

B2: TEX12core (human TEX12 amino acids 49-123) (domain or fragment, UniProt Q9BXU0 49-123, looked up)
chain: KDEALEKDLNDVSKEINLMLSTYAKLLSERAAVDASYIDEIDELFKEANAIENFLIQKREFLRQRFTVIANTLHR
notes: Human TEX12, alpha-helical structural core, amino acids 49-123; Cloned into pMAT11 as a His6-MBP fusion with a TEV site; also called structural core (49-123); source: E. coli BL21(DE3), purified (Ni-NTA, amylose, TEV cleavage, anion exchange); not shown: His6, N-terminal, cleaved; MBP, N-terminal, cleaved
stoichiometry N: 2
